Experiments:
[1] = molecular target: T1, human folate receptor alpha as expressed on cells (human, UniProt P15328 25-234); experiment: cell ELISA on fixed OVCAR3 cells, F(ab')2; KD = concentration at half of plateau signal
T1 construct: GPI-anchored on the cell surface; Natural expression on OVCAR3 and IGROV1 ovarian carcinoma cells, transfected into A431 cells (A431-FR); also called alpha FR; FR-alpha
Method: (§1) 4×10⁴ cells (human ovarian carcinoma cell lines OVCAR3 (ATCC) and IGROVI (a gift from Dr J. Bénard, Institut Gustave Roussy, Villejuif, France), and A431-FR⁽¹⁷⁾ cells which are human epidermoid carcinoma cells transfected with folate receptor alpha,) were seeded in each well of a 96 wells format plate, and grown until a confluent monolayer was obtained. Cells were fixed, for 5 minutes, at room temperature with 0.1% glutaraldehyde in PBS. Plates were washed twice with PBS, then once (5 minutes) with 0.1M glycine in PBS+0.02% NaN₃, successively five times with PBS and finely with PBS containing 1% BSA and 0.02% NaN₃.
(§2) An anti-human IgG (Fab specific, Sigma) peroxidase conjugated diluted 1:1000 in PBS+0.03% BSA was used to reveal antibodies fragment binding.
(§3) Since no signal could be detected on the A431 mock cells which are cells transfected with the empty vector, as compared to the cells transfected with FR-alpha, both AFRA and C4 antibodies were judged to be specific for the alpha folate receptor. […] Table I reports ELISA determination of KD values of F(ab′)₂ of C4 and AFRA antibodies fragments. The KD was determined as to be the concentration at which half of the ELISA plateau signal is obtained.

[2] = molecular target: T1, human folate receptor alpha as …; experiment: cell ELISA on fixed A431-FR cells, F(ab')2; KD = concentration at half of plateau signal
Method: as §1, §2, §3

[3] = molecular target: T1, human folate receptor alpha as …; experiment: cell ELISA on fixed IGROV1 cells, F(ab')2; KD = concentration at half of plateau signal
Method: as §1, §2, §3

[4] = molecular target: T2, recombinant soluble human alpha folate receptor with His6 purification tag (human, UniProt P15328 25-232); experiment: SPR (BIAcore), KD of AFRA Fab against KD of C4 Fab
T2 construct: Expressed in CHO-K1 cells and purified from the supernatant; also called soluble alpha FR; recombinant FR
Method: (§4) FIG. 3 (BIAcore binding): Determination of antibody fragments binding parameters on alpha folate receptor. For this several concentrations of Fab monomer (from 3 to 200 nM) were flowed in the sensorchip cell previously coated with the recombinant receptor and binding was registered for 30 minutes. After this time period washing was monitored for another twenty minutes.
(§5) The target protein was coated on […] BIAcore sensorchip and several concentrations of both antibody fragments were used to determine the binding kinetics. In particular, recombinant FR was covalently bound to a CM5 sensor chip using the amine coupling kit (Pharmacia) with an antigen concentration of 0.6 μg/ml in 10 mM sodium acetate, pH 4.8 yielding a surface of 280 RU. Residual activated groups were blocked by injection of […] ethanolamine (1.0 M pH 8.5). […] Evaluation was performed for at least 30 minutes. Subsequently, detachment of residual antibody bound to the sensor chip was performed with 100 mM Glycine Buffer pH 2.7.

[5] = molecular target: T2, recombinant soluble human alpha folate …; experiment: SPR (BIAcore), recombinant FR amine-coupled to CM5 chip, Fab monomer 3.125-200 nM in flow
Method: as §4, §5

T1 sequence (P15328 25-234): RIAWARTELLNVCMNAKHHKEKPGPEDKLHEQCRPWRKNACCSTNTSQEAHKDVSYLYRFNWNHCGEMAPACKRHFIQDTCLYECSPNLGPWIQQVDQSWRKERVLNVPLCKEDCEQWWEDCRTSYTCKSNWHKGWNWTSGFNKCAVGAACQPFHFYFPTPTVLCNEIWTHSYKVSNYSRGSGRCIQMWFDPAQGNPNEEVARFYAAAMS
T2 sequence (P15328 other isoform, or with tags, fused parts or gaps limits assumed): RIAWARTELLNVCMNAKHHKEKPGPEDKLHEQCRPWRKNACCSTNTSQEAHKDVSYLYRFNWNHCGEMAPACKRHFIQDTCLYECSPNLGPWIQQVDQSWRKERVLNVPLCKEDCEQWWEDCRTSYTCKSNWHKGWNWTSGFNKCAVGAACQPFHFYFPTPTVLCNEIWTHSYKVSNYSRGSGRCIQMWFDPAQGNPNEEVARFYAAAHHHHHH

Row | Kd [1] | Kd [2] | Kd [3] | fold lower KD than C4 [4] | Kd [5] | Binder
1 | 11 nM | 1.2 nM | 118 nM | – | – | C4 F(ab')2 natural dimer (other, C-terminal hinge cysteine disulfide-bonded to the second Fab', The preparation is heavily contaminated: 29% L2H2 dimer, 43% L2H pseudo-dimer and 25% free heavy chain; For heavy chain position 1 see the note of m2; also called F(ab')2-C4) light: QSALTQPASVSGSPGQSITISCTGTSSDVGSYNLVSWYQQHPGKAPKLMIYEGSKRPSGVSNRFSGSKSGNAASLTISGLQAEDEADYYCQSYDSSLSVVFGGGTKLTVLGQPKAAPSVTLFPPSSEELQANKATLVCLISDFYPGAVTVAWKADSSPVKAGVETTTPSKQSNNKYAASSYLSLTPEQWKSHRGYSCQVTHEGSTVEKTVAPTECS heavy: QVQLVESGGGLVQPGRSLRLSCTTSGFTFGDYAMIWARQAPGKGLEWVSSISSSSSYIYYADSVKGRFTISRDNAKNSLYLQMNSLRAEDTAVYYCARERYDFWSGMDVWGKGTTVTVSSASTKGPSVFPLAPSSKSTSGGTAALGCLVKDYFPEPVTVSWNSGALTSGVHTFPAVLQSSGLYSLSSVVTVPSSSLGTQTYICNVNHKPSNTKVDKKDKTSC
2 | 26 nM | 2.5 nM | 57 nM | – | – | AFRA F(ab')2 natural dimer (other, C-terminal hinge cysteine disulfide-bonded to the second Fab', F(ab')2 made by natural oxidation of Fab'; By SDS-PAGE the preparation is 80% L2H2 dimer, 16% L2H and 4% free heavy chain; For Q1N see the note of m1; also called F(ab')2-AFRA; AFRA dimer) light: EIVLTQSPASLAVSPGQRATITCRASESVSFLGINLIHWYQQKPGQPPKLLIYQASNKDTGVPARFSGSGSGTDFTLTINPVEANDTANYYCLQSKNFPPYTFGQGTKLEIKRTVAAPSVFIFPPSDEQLKSGTASVVCLLNNFYPREAKVQWKVDNALQSGNSQESVTEQDSKDSTYSLSSTLTLSKADYEKHKVYACEVTHQGLSSPVTKSFNRGEC heavy: NVQLVESGGGLVQPGRSLRLSCTTSGFTFGDYAMIWARQAPGKGLEWVSSISSSSSYIYYADSVKGRFTISRDNAKNSLYLQMNSLRAEDTAVYYCARERYDFWSGMDVWGKGTTVTVSSASTKGPSVFPLAPSSKSTSGGTAALGCLVKDYFPEPVTVSWNSGALTSGVHTFPAVLQSSGLYSLSSVVTVPSSSLGTQTYICNVNHKPSNTKVDKKDKTSC
3 | – | – | – | 3 fold | 43.9 nM | AFRA Fab fragment (Anti Folate Receptor Alpha human Fab, kappa light chain) (Fab, V domains shown, Made in E. coli periplasm; also called AFRA monomer; Fab AFRA) VH: NVQLVESGGGLVQPGRSLRLSCTTSGFTFGDYAMIWARQAPGKGLEWVSSISSSSSYIYYADSVKGRFTISRDNAKNSLYLQMNSLRAEDTAVYYCARERYDFWSGMDVWGKGTTVTVSS VL: EIVLTQSPASLAVSPGQRATITCRASESVSFLGINLIHWYQQKPGQPPKLLIYQASNKDTGVPARFSGSGSGTDFTLTINPVEANDTANYYCLQSKNFPPYTFGQGTKLEIKR
4 | – | – | – | – | 168 nM | C4 Fab fragment (human anti-folate receptor alpha Fab, lambda light chain) (Fab, V domains shown, It says only that C4 and AFRA share the heavy chain except for Q1N in AFRA, so C4 has Q at position 1; also called Fab C4) VH: QVQLVESGGGLVQPGRSLRLSCTTSGFTFGDYAMIWARQAPGKGLEWVSSISSSSSYIYYADSVKGRFTISRDNAKNSLYLQMNSLRAEDTAVYYCARERYDFWSGMDVWGKGTTVTVSS VL: QSALTQPASVSGSPGQSITISCTGTSSDVGSYNLVSWYQQHPGKAPKLMIYEGSKRPSGVSNRFSGSKSGNAASLTISGLQAEDEADYYCQSYDSSLSVVFGGGTKLTVLG

From US20100055034A1 (DOMPE PHA MA S P A, published 2010)
